Laboratory results reported in article PMC5216119, “An allosteric conduit facilitates dynamic multisite substrate recognition by the SCF^Cdc4 ubiquitin ligase” (Nature Communications, 2017).
Residue numbers refer to the chain shown, from its start. Like-named read-outs stand apart in the source and are kept apart here. Square brackets hold non-standard residues; d marks the D form. Ends that are not written are not given here. Peptide text beside a SMILES is read from it. pT = C[C@@H](OP(=O)(O)O)[C@H](N)C(=O)O; pS = N[C@@H](COP(=O)(O)O)C(=O)O

Legend:
Skp1-Cdc4 complex = Skp1-Cdc4 complex (Saccharomyces cerevisiae, UniProt P07834+P52286); experiment: Fluorescence polarization binding of fluorescein-labelled Ash1 peptides to Skp1-Cdc4; parameters: species or system yeast; conditions: 10 nM fluorescein-labelled peptide, increasing recombinant Skp1-Cdc4 complex; 10 mM HEPES pH 7.5, 40 mM NaCl, 0.1 mg ml^−1 BSA, 1 mM DTT; ex 485 / em 535 nm; read-out: Kd (μM) from fluorescence polarization
Chain of Skp1-Cdc4 complex (P07834 whole entry): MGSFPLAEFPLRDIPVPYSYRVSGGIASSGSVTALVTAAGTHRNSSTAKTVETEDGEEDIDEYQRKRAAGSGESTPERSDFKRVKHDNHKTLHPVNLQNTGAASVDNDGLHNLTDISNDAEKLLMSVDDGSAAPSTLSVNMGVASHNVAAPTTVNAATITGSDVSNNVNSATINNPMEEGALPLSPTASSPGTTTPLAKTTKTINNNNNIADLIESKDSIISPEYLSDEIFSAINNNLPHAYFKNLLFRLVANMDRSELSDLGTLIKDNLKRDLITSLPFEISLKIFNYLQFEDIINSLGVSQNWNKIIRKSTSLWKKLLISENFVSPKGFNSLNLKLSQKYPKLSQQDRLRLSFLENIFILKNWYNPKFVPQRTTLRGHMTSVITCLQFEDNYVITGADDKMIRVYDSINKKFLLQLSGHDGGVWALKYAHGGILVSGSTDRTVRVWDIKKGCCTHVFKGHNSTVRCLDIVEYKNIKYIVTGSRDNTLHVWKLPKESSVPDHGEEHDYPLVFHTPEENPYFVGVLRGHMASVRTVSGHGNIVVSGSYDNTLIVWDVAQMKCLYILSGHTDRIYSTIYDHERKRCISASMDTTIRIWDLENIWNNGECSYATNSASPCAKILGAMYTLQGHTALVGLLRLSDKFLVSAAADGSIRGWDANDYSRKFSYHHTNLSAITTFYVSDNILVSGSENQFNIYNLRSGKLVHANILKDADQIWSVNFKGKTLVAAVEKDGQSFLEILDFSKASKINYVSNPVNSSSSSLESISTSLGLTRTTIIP
Chain of Skp1-Cdc4 complex (P52286 whole entry partner): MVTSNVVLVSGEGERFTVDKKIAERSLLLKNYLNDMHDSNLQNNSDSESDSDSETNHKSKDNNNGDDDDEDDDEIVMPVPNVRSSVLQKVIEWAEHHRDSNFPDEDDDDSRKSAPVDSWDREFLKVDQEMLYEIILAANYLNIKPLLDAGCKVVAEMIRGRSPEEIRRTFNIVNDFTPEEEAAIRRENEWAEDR
Source text: Figure 6 NMR titration of IM-labelled Cdc4^WD40 with Ash1 peptides. (a) Combined ^1H and ^13C chemical shifts of Cdc4^WD40 on binding of Ash1 peptides, with pT286 peptide in red, pT290 peptide in green, pS294 peptide in yellow, and the peptide phosphorylated on all three CPDs in blue. Assigned Ile and Met residues are labelled with residue number. Chemical shifts for the two bound states in titration with pT286 and triply phosphorylated peptides are reported on the same bars with stripes or without stripes. […] (f) Fluorescence polarization of the fluorescein-labelled Ash1 peptides (circle, pT286/pT290/pS294, square, pT286/pT290, triangle, pT290/pS294, inverted triangle doubly phosphorylated CycE peptide) in the presence of increasing concentrations of the recombinant Skp1-Cdc4 complex (mP, millipolarization unit). (g) Fluorescence polarization of the fluorescein-labelled Ash1 peptides (circle, pT286/pT290/pS294, square, pT286/pT290, triangle, pT290/pS294, inverted triangle, doubly phosphorylated CycE peptide) in the presence of increasing concentrations of the SCF-I2 inhibitor.
Fluorescence polarization assays containing 0.21 μM Skp1-Cdc4 complex and 10 nM fluorescently labelled cyclin E-derived or Ash1-derived phosphopeptides in 10 mM HEPES (pH 7.5), 40 mM NaCl, 0.1 mg ml^−1 BSA and 1 mM DTT in a final volume of 23.5 μl per well were performed on an Analyst HT plate reader (Molecular Devices Corp., Sunnyvale CA). Samples were excited at 485 nm and emission was read at 535 nm (ref. [26]).

[1] = molecular target: Cdc4 (Saccharomyces cerevisiae) (UniProt P07834); conditions: cited from earlier work
Chain of Cdc4 (Saccharomyces cerevisiae) (P07834 whole entry): as the sequence (P07834 whole entry) above

[2] = molecular target: Cdc4 (Saccharomyces cerevisiae) (UniProt P07834); conditions: cited from earlier work; remark: listed apart in the source
[3] = molecular target: Cdc4 (Saccharomyces cerevisiae) (UniProt P07834); conditions: cited from earlier work; remark: listed apart in the source
[4] = molecular target: Cdc4 (Saccharomyces cerevisiae) (UniProt P07834); conditions: cited from earlier work; remark: listed apart in the source
[5] = molecular target: Cdc4 (Saccharomyces cerevisiae) (UniProt P07834); conditions: cited from earlier work; remark: listed apart in the source
[6] = molecular target: Cdc4 (Saccharomyces cerevisiae) (UniProt P07834); conditions: cited from earlier work; remark: listed apart in the source
[7] = molecular target: Cdc4 (Saccharomyces cerevisiae) (UniProt P07834); conditions: cited from earlier work; remark: listed apart in the source
[8] = molecular target: Cdc4 (Saccharomyces cerevisiae) (UniProt P07834); conditions: cited from earlier work; remark: listed apart in the source
[9] = molecular target: Cdc4-Skp1 (Saccharomyces cerevisiae) (UniProt P07834); experiment: intrinsic Trp fluorescence; conditions: cited from earlier work
Chain of Cdc4-Skp1 (Saccharomyces cerevisiae) (P07834 whole entry, chain 1 of 2): as the sequence (P07834 whole entry) above
Chain of Cdc4-Skp1 (Saccharomyces cerevisiae) (P52286 2-194, chain 2 of 2, further chain): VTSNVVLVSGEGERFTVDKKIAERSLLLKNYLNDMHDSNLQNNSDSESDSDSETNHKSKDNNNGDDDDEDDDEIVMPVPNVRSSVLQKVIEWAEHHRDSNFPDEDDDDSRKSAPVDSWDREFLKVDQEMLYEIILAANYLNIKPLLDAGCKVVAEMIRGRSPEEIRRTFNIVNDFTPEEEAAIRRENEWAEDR

[10] = molecular target: fluorescein-labelled Ash1^18pT290/pS294 peptide (yeast); experiment: fluorescence polarisation; 10 nM fluorescein-labelled peptide with increasing concentrations of the recombinant Skp1-Cdc4 complex; 10 mM HEPES pH 7.5, 40 mM NaCl, 0.1 mg/ml BSA, 1 mM DTT
[11] = molecular target: fluorescein-labelled Ash1^18pT286/pT290 peptide (yeast); experiment: as above
[12] = molecular target: fluorescein-labelled Ash1^18pT286/pT290/pS294 peptide (yeast); experiment: as above
R664Q Cdc4^WD40 = molecular target: T1, R664Q Cdc4^WD40 (yeast, UniProt P07834 367-744, R664Q); experiment: other fluorescence titration; intrinsic Trp fluorescence (excitation 298 nm, emission 366 nm); 0.5 μM Cdc4, ligand titrated; 50 mM Tris, 150 mM NaCl, 5 mM DTT, pH 7.5, 20 °C; 1:1 stoichiometry assumed; conditions: both partners purified
T1 construct: Cdc4, yeast F-box protein, WD40 domain, residues 367-744, with Arg664Gln in the allosteric pocket; also called Arg664Gln Cdc4^WD40; mutant (Arg664Gln) Cdc4^WD40; source: E. coli, purified as the wild type (Ni-NTA, Ulp protease, Ni-NTA, Superdex 200)
T1 sequence (looked up): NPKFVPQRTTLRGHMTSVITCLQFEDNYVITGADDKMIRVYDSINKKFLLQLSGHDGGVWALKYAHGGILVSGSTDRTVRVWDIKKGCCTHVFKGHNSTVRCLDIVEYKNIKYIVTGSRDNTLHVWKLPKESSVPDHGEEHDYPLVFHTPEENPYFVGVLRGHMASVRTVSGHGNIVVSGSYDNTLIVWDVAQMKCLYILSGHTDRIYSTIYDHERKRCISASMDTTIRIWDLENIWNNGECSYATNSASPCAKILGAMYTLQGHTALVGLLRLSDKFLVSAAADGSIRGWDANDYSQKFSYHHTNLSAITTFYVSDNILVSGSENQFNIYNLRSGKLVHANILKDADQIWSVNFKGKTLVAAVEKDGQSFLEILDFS

[13] = molecular target: T2, Cdc4^WD40 (isolated WD40 domain of the yeast F-box protein Cdc4, residues 367-744), wild type (yeast, UniProt P07834 367-744); experiment: as above; conditions: both partners purified
T2 construct: Cdc4, yeast F-box protein, WD40 domain, residues 367-744; For the NMR experiments the protein was U-[15N,2H], Ile-delta1-[13CH3], Met-epsilon-[13CH3] labelled (IM-labelled); also called wt Cdc4^WD40; Cdc4 WD40 domain; source: E. coli BL21(DE3) codonPlus, purified (Ni-NTA, Ulp protease, Ni-NTA, Superdex 200)
T2 sequence (looked up): T1 sequence (looked up) with Q298R

Chain of pSic1 (P38634 whole entry): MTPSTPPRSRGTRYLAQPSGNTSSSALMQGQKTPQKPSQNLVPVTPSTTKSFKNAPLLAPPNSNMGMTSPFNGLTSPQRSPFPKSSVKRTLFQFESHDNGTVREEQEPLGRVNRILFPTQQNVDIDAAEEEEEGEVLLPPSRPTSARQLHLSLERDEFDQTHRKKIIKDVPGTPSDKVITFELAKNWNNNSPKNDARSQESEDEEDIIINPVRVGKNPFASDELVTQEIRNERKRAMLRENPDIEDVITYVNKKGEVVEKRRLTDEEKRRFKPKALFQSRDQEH
Chain of Sic1 (P38634 whole entry): as above
Chain of Ash1 pS294 peptide (P34233 whole entry): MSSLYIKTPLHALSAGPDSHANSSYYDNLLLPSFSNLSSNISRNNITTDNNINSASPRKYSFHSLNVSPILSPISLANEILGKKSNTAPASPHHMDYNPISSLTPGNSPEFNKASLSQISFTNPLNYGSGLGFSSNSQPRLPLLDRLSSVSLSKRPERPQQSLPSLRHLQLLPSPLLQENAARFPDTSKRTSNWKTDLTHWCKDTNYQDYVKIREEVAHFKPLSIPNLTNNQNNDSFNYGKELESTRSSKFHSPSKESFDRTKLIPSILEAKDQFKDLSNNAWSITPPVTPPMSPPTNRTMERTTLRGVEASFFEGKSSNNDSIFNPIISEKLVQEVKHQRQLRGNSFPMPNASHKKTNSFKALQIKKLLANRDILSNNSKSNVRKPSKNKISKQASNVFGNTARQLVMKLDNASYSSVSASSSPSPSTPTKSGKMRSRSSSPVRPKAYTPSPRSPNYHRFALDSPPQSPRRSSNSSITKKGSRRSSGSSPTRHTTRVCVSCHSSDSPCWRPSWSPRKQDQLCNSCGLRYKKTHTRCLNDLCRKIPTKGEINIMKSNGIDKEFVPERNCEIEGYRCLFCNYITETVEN
Chain of Ash1 pT290 peptide (P34233 whole entry): as above
Chain of Ash1 pT286 peptide (P34233 whole entry): as above
Chain of pSic1 1-90 (P38634 1-90): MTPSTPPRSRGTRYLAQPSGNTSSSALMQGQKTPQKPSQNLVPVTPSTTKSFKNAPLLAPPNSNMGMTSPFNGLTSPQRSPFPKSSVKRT

In the case of `CC[C@H](C)[C@H](NC(=O)[C@H](CO)NC(=O)[C@H](Cc1c[nH]c2ccccc12)NC(=O)[C@H](C)N)C(=O)N[C@H](C(=O)N1CCC[C@H]1C(=O)N1CCC[C@H]1C(=O)N[C@H](C(=O)N[C@H](C(=O)N1CCC[C@H]1C(=O)N1CCC[C@H]1C(=O)N[C@@H](CCSC)C(=O)N[C@@H](COP(=O)(O)O)C(=O)N1CCC[C@H]1C(=O)N1CCC[C@H]1C(=O)N[C@H](C(=O)N[C@@H](CC(N)=O)C(=O)N[C@@H](CCCNC(=N)N)C(=O)O)[C@@H](C)O)[C@@H](C)OP(=O)(O)O)C(C)C)[C@@H](C)O` [AWSITPPVpTPPMpSPPTNR] (H-AWSITPPV[pT]PPM[pS]PPTNR-OH), the Kd (Skp1-Cdc4 complex) is reported as 0.082 µM.

Molecule `CC[C@H](C)[C@H](NC(=O)[C@H](CO)NC(=O)[C@H](Cc1c[nH]c2ccccc12)NC(=O)[C@H](C)N)C(=O)N[C@H](C(=O)N1CCC[C@H]1C(=O)N1CCC[C@H]1C(=O)N[C@H](C(=O)N[C@H](C(=O)N1CCC[C@H]1C(=O)N1CCC[C@H]1C(=O)N[C@@H](CCSC)C(=O)N[C@@H](CO)C(=O)N1CCC[C@H]1C(=O)N1CCC[C@H]1C(=O)N[C@H](C(=O)N[C@@H](CC(N)=O)C(=O)N[C@@H](CCCNC(=N)N)C(=O)O)[C@@H](C)O)[C@@H](C)OP(=O)(O)O)C(C)C)[C@@H](C)OP(=O)(O)O` [AWSIpTPPVpTPPMSPPTNR] (H-AWSI[pT]PPV[pT]PPMSPPTNR-OH) has a Kd (Skp1-Cdc4 complex) of 0.069 µM.

For `CC[C@H](C)[C@H](NC(=O)[C@H](CO)NC(=O)[C@H](Cc1c[nH]c2ccccc12)NC(=O)[C@H](C)N)C(=O)N[C@H](C(=O)N1CCC[C@H]1C(=O)N1CCC[C@H]1C(=O)N[C@H](C(=O)N[C@H](C(=O)N1CCC[C@H]1C(=O)N1CCC[C@H]1C(=O)N[C@@H](CCSC)C(=O)N[C@@H](COP(=O)(O)O)C(=O)N1CCC[C@H]1C(=O)N1CCC[C@H]1C(=O)N[C@H](C(=O)N[C@@H](CC(N)=O)C(=O)N[C@@H](CCCNC(=N)N)C(=O)O)[C@@H](C)O)[C@@H](C)OP(=O)(O)O)C(C)C)[C@@H](C)OP(=O)(O)O` [AWSIpTPPVpTPPMpSPPTNR] (H-AWSI[pT]PPV[pT]PPM[pS]PPTNR-OH), the Kd (Skp1-Cdc4 complex) was 0.046 µM.

In the case of “Ash1 pS294 peptide (from UniProt P34233)”, the Kd [1] is given as 6.5 µM.

For “Ash1 pSer294 phosphopeptide 283-299 (from UniProt P34233)”, the Kd [2] is listed as 6.5 µM.

In the case of “Ash1 pT286 peptide (from UniProt P34233)”, the Kd [3] is listed as 900 nM.

In the case of “Ash1 pT290 peptide (from UniProt P34233)”, the Kd [4] is given as 4.1 µM.

For “Ash1 pThr286 phosphopeptide 283-299 (from UniProt P34233)”, the Kd [5] is listed as 900 nM.

For “Ash1 pThr290 phosphopeptide 283-299 (from UniProt P34233)”, the Kd [6] is given as 4.1 µM.

In the case of “Ash1 triphosphorylated peptide 283-299 (from UniProt P34233)”, the Kd [7] is given as 70 nM.

In the case of Sic1 (from UniProt P38634), the Kd [8] is given as 1000 nM.

For pSic1 1-90 (from UniProt P38634), the Kd [9] is given as 600 nM.

For pSic1 (from UniProt P38634), the Kd [9] is listed as 600 nM.

“recombinant Skp1-Cdc4 complex (from UniProt P07834 1-779; P52286 1-194)” showed a Kd [10] of 82 nM, a Kd [11] of 69 nM and a Kd [12] of 46 nM.

For GMT[pS]PFNGLTSPQRSPFPKS [Sic1^20pS69 phosphopeptide], the Ka (R664Q Cdc4^WD40) was 51400 M⁻¹, the Kd (R664Q Cdc4^WD40) was 19.5 µM and the Ka [13] was 97600 M⁻¹. It also gave a Kd [13] of 10.3 µM.

Molecule GMTSPFNGLTSPQR[pS]PFPKS [Sic1^20pS80 phosphopeptide] has a Ka (R664Q Cdc4^WD40) of 104000 M⁻¹, a Kd (R664Q Cdc4^WD40) of 9.58 µM and a Ka [13] of 110000 M⁻¹. For the same molecule, the Kd [13] was 9.13 µM.

For GMT[pS]PFNGLTSPQR[pS]PFPKS [Sic1^20pS69/pS80 phosphopeptide], the Ka (R664Q Cdc4^WD40) was 267000 M⁻¹, the Kd (R664Q Cdc4^WD40) was 3.74 µM and the Ka [13] was 142000 M⁻¹. The Kd [13] was 7.06 µM.
